This experiment addresses streptavidin-binding peptide-tagged constitutively active form of TAZ (SBP-TAZ4SA) (human) (UniProt Q9GZV5).
UniProt Q9GZV5, sequence (Q9GZV5 whole entry): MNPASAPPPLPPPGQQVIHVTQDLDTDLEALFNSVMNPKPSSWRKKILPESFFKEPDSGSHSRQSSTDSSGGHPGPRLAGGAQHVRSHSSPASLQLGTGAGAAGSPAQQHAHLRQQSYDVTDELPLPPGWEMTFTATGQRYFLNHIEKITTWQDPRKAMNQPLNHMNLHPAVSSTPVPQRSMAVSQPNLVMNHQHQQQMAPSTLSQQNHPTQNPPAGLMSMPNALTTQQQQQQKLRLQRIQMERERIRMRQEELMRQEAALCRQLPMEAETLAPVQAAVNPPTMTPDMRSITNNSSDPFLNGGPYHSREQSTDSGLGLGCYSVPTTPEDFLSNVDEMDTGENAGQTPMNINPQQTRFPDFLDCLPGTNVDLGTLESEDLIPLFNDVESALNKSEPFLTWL

“Flag-p52 (from UniProt Q9WTK5 1-454) (natural protein)”: the Ccl19 promoter-driven luciferase activity in HEK293T cells co-transfected with TAZ4SA and p52 (p52 alone: 7.5-fold) came to 13.5 fold.

The values are drawn from publication PMC6981200.
